Drawing on the supplement of paper PMC6755084, this text covers fraction ligated for 34 variants.

The chains are these.
B1: F1*; the commonest letter at each place (parent)
chain: GAGACCGCAACTGAAAAGTTGTTATCACTTGTCGTAAGACACTTTGGATGGGTTGAAGTTCTGCACGTAGAAGCAAAAGGC

In the series the parent is B1. The series is described as follows: fraction ligated after 30 min (ligated reads / total reads); higher = more ligase activity. Particulars: with F1*sub RNA substrate (template-directed ligation), 42 °C. The protocol:
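Chip-synthesised pool of F1* ligase ribozyme variants (all single and double substitutions, single, double and triple deletions in the catalytic core and GAA bulge, plus designed variants) was transcribed with T7 and reacted as a pool with excess substrate F1*sub for 30 min at 42 C in 50 mM EPPS pH 8.5, 25 mM MgCl2. Ligated and unligated bands were separated by PAGE, barcoded by RT and deep sequenced; fraction ligated = ligated reads / total reads per variant, relative activity = FL / FL of wild type (0.826). Sequences are the DNA template of the ribozyme.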
As to GAGACCGCAACTGAAAAGTTGTTGTCACTTGTCGTAAGACACTCTGGATGGGTTGAAGTTCTGCACGTAGAAGCAAAAGGC [A24G T44C], the fraction ligated was determined as 0.763. Under GAGACCGCAACTGAAAAGTTGTTGTCACTTGTCGTAAGACACTATGGATGGGTTGAAGTTCTGCACGTAGAAGCAAAAGGC [A24G T44A] stands 0.817; under GAGACCGCAACTGAAAAGTTGTTGTCACTTGTCGTAAGACACTGTGGATGGGTTGAAGTTCTGCACGTAGAAGCAAAAGGC [A24G T44G], 0.791.

As to GAGACCGCAACTGAAAAGTTGTTGTCACTTGGCGTAAGACACTTTGGATGGGTTGAAGTTCTGCACGTAGAAGCAAAAGGC [A24G T32G], the fraction ligated was 0.589. Turning to GAGACCGCAACTGAAAAGTTGTTGTCACTTGCCGTAAGACACTTTGGATGGGTTGAAGTTCTGCACGTAGAAGCAAAAGGC [A24G T32C], the fraction ligated worked out at 0.369. Under GAGACCGCAACTGAAAAGTTGTTGTCACTTGACGTAAGACACTTTGGATGGGTTGAAGTTCTGCACGTAGAAGCAAAAGGC [A24G T32A] stands 0.591; under GAGACCGCAACTGAAAAGTTGTTTTCACTTGTCGTAAGACACTTTGGATGGGTTGGAGTTCTGCACGTAGAAGCAAAAGGC [A24T A56G], 0.0306.

In the case of GAGACCGCAACTGAAAAGTTGTTTTCACTTGTCGTAAGACACTTTGGATGGGTTGTAGTTCTGCACGTAGAAGCAAAAGGC [A24T A56T], the fraction ligated came out at 0.0614. The result for GAGACCGCAACTGAAAAGTTGTTTTCACTTGTCGTAAGACACTTTGGATGGGTTGCAGTTCTGCACGTAGAAGCAAAAGGC [A24T A56C] reads 0.0299; that for GAGACCGCAACTGAAAAGTTGTTTTCACTTGTCGTAAGACACTTTGGATGGGTTGAAGTTCTGCACGTAGAAGCAAAAGGC [A24T], 0.778; that for GAGACCGCAACTGAAAAGTTGTTTTCACTTGTCGTTAGACACTTTGGATGGGTTGAAGTTCTGCACGTAGAAGCAAAAGGC [A24T A36T], 0.794. Under GAGACCGCAACTGAAAAGTTGTTTTCACTTGTCGTGAGACACTTTGGATGGGTTGAAGTTCTGCACGTAGAAGCAAAAGGC [A24T A36G] stands 0.519; under GAGACCGCAACTGAAAAGTTGTTTTCACTTGTCGTCAGACACTTTGGATGGGTTGAAGTTCTGCACGTAGAAGCAAAAGGC [A24T A36C], 0.805; under GAGACCGCAACTGAAAAGTTGTTGTCACTTGTCGTAAGACACTTAGGATGGGTTGAAGTTCTGCACGTAGAAGCAAAAGGC [A24G T45A], 0.22. The result for GAGACCGCAACTGAAAAGTTGTTGTCACTTGTCGTAAGACACTTGGGATGGGTTGAAGTTCTGCACGTAGAAGCAAAAGGC [A24G T45G] reads 0.0477.

GAGACCGCAACTGAAAAGTTGTTGTCACTTGTCGTAAGACACTTCGGATGGGTTGAAGTTCTGCACGTAGAAGCAAAAGGC [A24G T45C]: the fraction ligated is 0.0441. The result for GAGACCGCAACTGAAAAGTTGTTGTCACTTGTCGTAAGACACTTTTGATGGGTTGAAGTTCTGCACGTAGAAGCAAAAGGC [A24G G46T] reads 0.621; that for GAGACCGCAACTGAAAAGTTGTTGTCACTTGTCGTAAGACACTTTAGATGGGTTGAAGTTCTGCACGTAGAAGCAAAAGGC [A24G G46A], 0.803; that for GAGACCGCAACTGAAAAGTTGTTGTCACTTGTCGTAAGACACTTTCGATGGGTTGAAGTTCTGCACGTAGAAGCAAAAGGC [A24G G46C], 0.765. As for GAGACCGCAACTGAAAAGTTGTTGTCACTTGTCGTAAAACACTTTGGATGGGTTGAAGTTCTGCACGTAGAAGCAAAAGGC [A24G G38A], the fraction ligated is 0.752. The result for GAGACCGCAACTGAAAAGTTGTTGTCACTTGTCGTAACACACTTTGGATGGGTTGAAGTTCTGCACGTAGAAGCAAAAGGC [A24G G38C] reads 0.695; that for GAGACCGCAACTGAAAAGTTGTTGTCACTTGTCGTAATACACTTTGGATGGGTTGAAGTTCTGCACGTAGAAGCAAAAGGC [A24G G38T], 0.745. In the case of GAGACCGCAACTGAAAAGTTGTTGTCACTTGTCGTAAGACACTTTGGATGGGTTCAAGTTCTGCACGTAGAAGCAAAAGGC [A24G G55C], the fraction ligated was determined as 0.18. The result for GAGACCGCAACTGAAAAGTTGTTGTCACTTGTCGTAAGACACTTTGGATGGGTTTAAGTTCTGCACGTAGAAGCAAAAGGC [A24G G55T] reads 0.629. Under GAGACCGCAACTGAAAAGTTGTTGTCACTTGTCGTAAGACACTTTGGATGGGTTAAAGTTCTGCACGTAGAAGCAAAAGGC [A24G G55A] stands 0.685. Under GAGACCGCAACTGAAAAGTTGTTTTCACTTGTCGTAAGACACTTTGGATGGGTTGAGGTTCTGCACGTAGAAGCAAAAGGC [A24T A57G] stands 0.729; under GAGACCGCAACTGAAAAGTTGTTTTCACTTGTCGTAAGACACTTTGGATGGGTTGACGTTCTGCACGTAGAAGCAAAAGGC [A24T A57C], 0.386. Regarding GAGACCGCAACTGAAAAGTTGTTTTCACTTGTCGTAAGACACTTTGGATGGGTTGATGTTCTGCACGTAGAAGCAAAAGGC [A24T A57T], the fraction ligated worked out at 0.503. On to GAGACCGCAACTGAAAAGTTGTTGCCACTTGTCGTAAGACACTTTGGATGGGTTGAAGTTCTGCACGTAGAAGCAAAAGGC [A24G T25C], for which the fraction ligated is 0.765. Consider GAGACCGCAACTGAAAAGTTGTTGGCACTTGTCGTAAGACACTTTGGATGGGTTGAAGTTCTGCACGTAGAAGCAAAAGGC [A24G T25G], for which the fraction ligated was 0.368.

Take GAGACCGCAACTGAAAAGTTGTTGACACTTGTCGTAAGACACTTTGGATGGGTTGAAGTTCTGCACGTAGAAGCAAAAGGC [A24G T25A]: the fraction ligated came to 0.697. The result for GAGACCGCAACTGAAAAGTTGTTGTCACTTGTCGTAAGACACTTTGCATGGGTTGAAGTTCTGCACGTAGAAGCAAAAGGC [A24G G47C] reads 0.0125; that for GAGACCGCAACTGAAAAGTTGTTGTCACTTGTCGTAAGACACTTTGAATGGGTTGAAGTTCTGCACGTAGAAGCAAAAGGC [A24G G47A], 0.684. The result for GAGACCGCAACTGAAAAGTTGTTGTCACTTGTCGTAAGACACTTTGTATGGGTTGAAGTTCTGCACGTAGAAGCAAAAGGC [A24G G47T] reads 0.0352.
